Target: zebrafish ΔP2X4-B (zebrafish) (UniProt F8W463)
Test: crystal structure

stoichiometry N: 3
Substance: zebrafish ΔP2X4-B (from UniProt F8W463 1-389) (receptor)

Source: publication PMC3391165
